{
  "source": "patent US20160137739A1",
  "about": "(KINIKSA PHARMACEUTICALS, published 2016)",
  "binders": {"B1": {"name": "Ab1 (antibody, human IgG2, lambda, V domains shown)", "VH": "QVQLVQSGAEVKKPGASVKVSCKASGYTFTSYDINWVRQATGQGLEWMGWMNPNSGNTDYAQKFQGRVTMTRNISISTAYIELSSLRSEDTAVYYCARDMVAANTDYYFYYGMDVWGQGTTVTVSS", "VL": "not shown", "notes": "also called Ab1 IgG2 WT; antibody 1"}, "B2": {"name": "Ab1 N73D IgG4P agly/IgG1 (antibody, V domains shown)", "VH": "B1 VH with N73D", "VL": "not shown"}, "B3": {"name": "Ab2 N73D IgG4P agly/IgG1 (antibody, V domains shown)", "VH": "B1 VH with D33E, N57Y, D59G, N73D, I74T, I81M, L83M, M100I", "VL": "QSVLTQPPSASGTPGQRVTISCSGSNSNIGSNTVNWYHQLPGTAPKLLIYNINKRPSGVPDRFSGSKSGSSASLAISGLQSEDEADYYCSTWDDSLDGVVFGGGTKLTVLG"}, "B4": {"name": "Ab1 N73D IgG2 (antibody, V domains shown)", "VH": "B1 VH with N73D", "VL": "not shown", "notes": "also called Ab1 version 2"}, "B5": {"name": "Ab2 N73D IgG2 (antibody, V domains shown)", "VH": "B1 VH with D33E, N57Y, D59G, N73D, I74T, I81M, L83M, M100I", "VL": "B3 VL", "notes": "also called Ab2 version 2"}, "B6": {"name": "Ab2 (antibody, human IgG2, lambda, V domains shown)", "VH": "B1 VH with D33E, N57Y, D59G, I74T, I81M, L83M, M100I", "VL": "B3 VL", "notes": "also called Ab2 IgG2 WT; antibody 2"}, "B7": {"name": "Ab3 (antibody, human IgG2, kappa, V domains shown)", "VH": "QVHLVQSGAEVKKPGASVKVSCKASGYTFTSYGISWVRQAPGQGLEWMGWLSTYSGNTNYAQKLQGRVTMTTDTSTSTAYMELRSLRSDDTAVYYCARGNFYYYGMDVWGQGTTVTVSS", "VL": "not shown", "notes": "also called antibody 3"}},
  "note": "Substitutions are numbered along the chain they refer to. Names and notes keep the numbering of the source.",
  "data": [
    {"biological_target": "T1, OSMR (UniProt Q99650 28-740)", "T1 sequence (looked up)": "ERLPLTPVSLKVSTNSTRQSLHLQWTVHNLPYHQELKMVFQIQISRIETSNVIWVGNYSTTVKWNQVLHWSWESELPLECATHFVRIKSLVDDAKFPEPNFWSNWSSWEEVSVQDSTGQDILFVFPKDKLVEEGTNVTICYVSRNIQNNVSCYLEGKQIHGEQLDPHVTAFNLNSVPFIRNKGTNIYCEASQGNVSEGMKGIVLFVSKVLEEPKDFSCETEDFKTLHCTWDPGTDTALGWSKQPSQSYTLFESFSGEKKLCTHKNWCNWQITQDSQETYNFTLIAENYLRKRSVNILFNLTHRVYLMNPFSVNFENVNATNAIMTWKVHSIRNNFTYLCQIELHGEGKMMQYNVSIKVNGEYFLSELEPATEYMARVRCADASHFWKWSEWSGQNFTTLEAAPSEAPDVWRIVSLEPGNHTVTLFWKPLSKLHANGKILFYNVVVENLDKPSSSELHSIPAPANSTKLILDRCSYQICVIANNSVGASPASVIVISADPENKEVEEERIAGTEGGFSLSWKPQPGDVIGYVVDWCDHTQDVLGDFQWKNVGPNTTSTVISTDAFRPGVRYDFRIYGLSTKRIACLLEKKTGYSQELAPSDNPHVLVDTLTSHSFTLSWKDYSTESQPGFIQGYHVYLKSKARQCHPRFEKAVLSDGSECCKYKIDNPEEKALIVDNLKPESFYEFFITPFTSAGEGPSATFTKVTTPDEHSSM", "assay": "Direct ELISA (solid state avidity format)", "units": {"EC50": "nM"}, "values": [
      {"binder": "B1", "EC50": 0.184},
      {"binder": "B2", "EC50": 0.0626},
      {"binder": "B3", "EC50": 0.0558},
      {"binder": "B4", "EC50": 0.0728},
      {"binder": "B5", "EC50": 0.179},
      {"binder": "B6", "EC50": 0.182}
    ]},
    {"biological_target": "T1, OSMR", "assay": "Sandwich ELISA (solution phase format)", "units": {"EC50": "nM"}, "values": [
      {"binder": "B1", "EC50": 0.581},
      {"binder": "B2", "EC50": 0.05},
      {"binder": "B3", "EC50": 0.064},
      {"binder": "B4", "EC50": 0.359},
      {"binder": "B5", "EC50": 0.343},
      {"binder": "B6", "EC50": 0.366}
    ]},
    {"biological_target": "T2, Soluble OSMR (UniProt Q99650 28-740)", "T2 sequence (looked up)": "T1 sequence (looked up)", "assay": "BIAcore, antibody immobilized on CM4 chip, soluble OSMR analyte", "units": {"Kd": "nM", "koff": "s⁻¹", "kon": "M⁻¹ s⁻¹"}, "experimental": "Binding studies were performed using the BIAcore method. Antibodies containing the variable regions of Ab1 or Ab2 (or the N73D variant of Ab1 or Ab2) with different Fe regions were immobilized on a CM4 chip (GE lifesciences) as per manufacturer's protocols. Soluble OSMR was used as the analyte.", "values": [
      {"binder": "B1", "Kd": 0.913, "koff": 0.00015, "kon": 164000},
      {"binder": "B4", "Kd": 0.675, "koff": 0.000168, "kon": 249000},
      {"binder": "B5", "Kd": 0.289, "koff": "4.99e-05", "kon": 173000},
      {"binder": "B6", "Kd": 1.01, "koff": 0.000189, "kon": 188000}
    ]},
    {"biological_target": "T3, human OSMR expressed on cells (human, UniProt Q99650 28-979)", "T3 sequence": "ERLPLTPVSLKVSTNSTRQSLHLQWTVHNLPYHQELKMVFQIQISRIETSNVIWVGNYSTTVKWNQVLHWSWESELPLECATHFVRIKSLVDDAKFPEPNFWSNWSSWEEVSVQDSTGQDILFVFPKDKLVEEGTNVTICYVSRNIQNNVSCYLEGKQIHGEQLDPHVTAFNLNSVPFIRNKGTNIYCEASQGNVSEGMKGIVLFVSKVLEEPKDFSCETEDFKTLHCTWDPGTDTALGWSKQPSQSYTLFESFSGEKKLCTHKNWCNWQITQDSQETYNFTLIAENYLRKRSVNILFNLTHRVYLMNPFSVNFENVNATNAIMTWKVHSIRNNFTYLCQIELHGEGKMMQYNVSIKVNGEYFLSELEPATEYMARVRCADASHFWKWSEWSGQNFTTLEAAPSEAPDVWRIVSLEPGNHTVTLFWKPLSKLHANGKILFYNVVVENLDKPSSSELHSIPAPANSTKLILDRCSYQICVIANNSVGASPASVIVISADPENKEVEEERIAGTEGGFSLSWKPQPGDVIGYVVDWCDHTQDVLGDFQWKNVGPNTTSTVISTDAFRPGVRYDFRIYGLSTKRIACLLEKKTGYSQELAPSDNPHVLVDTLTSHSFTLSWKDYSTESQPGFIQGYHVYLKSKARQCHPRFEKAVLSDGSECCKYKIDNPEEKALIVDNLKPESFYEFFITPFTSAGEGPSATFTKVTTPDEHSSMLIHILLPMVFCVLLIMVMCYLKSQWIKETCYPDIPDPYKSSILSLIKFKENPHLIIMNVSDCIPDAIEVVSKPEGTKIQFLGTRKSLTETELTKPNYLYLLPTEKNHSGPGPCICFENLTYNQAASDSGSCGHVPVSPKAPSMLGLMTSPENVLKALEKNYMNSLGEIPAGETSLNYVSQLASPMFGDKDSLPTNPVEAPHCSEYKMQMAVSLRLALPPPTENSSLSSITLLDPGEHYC", "assay": "cell-based or functional assay", "units": {"IC50, IL-31-induced proliferation of BaF3 cells expressing human IL-31RA4 and OSMR": "nM", "IC50, OSM-induced STAT3 nuclear translocation in primary normal human lung fibroblasts": "nM"}, "values": [
      {"binder": "B7", "IC50, IL-31-induced proliferation of BaF3 cells expressing human IL-31RA4 and OSMR": 0.78, "IC50, OSM-induced STAT3 nuclear translocation in primary normal human lung fibroblasts": 1.35},
      {"binder": "B1", "IC50, IL-31-induced proliferation of BaF3 cells expressing human IL-31RA4 and OSMR": 0.0352, "IC50, OSM-induced STAT3 nuclear translocation in primary normal human lung fibroblasts": 0.157},
      {"binder": "B6", "IC50, IL-31-induced proliferation of BaF3 cells expressing human IL-31RA4 and OSMR": 0.0276, "IC50, OSM-induced STAT3 nuclear translocation in primary normal human lung fibroblasts": 0.252}
    ]},
    {"biological_target": "T1, OSMR", "assay": "Capture ELISA (avidity-less format)", "units": {"EC50": "nM"}, "values": [
      {"binder": "B1", "EC50": 10.2},
      {"binder": "B2", "EC50": 2.86},
      {"binder": "B3", "EC50": 1.61},
      {"binder": "B4", "EC50": 4.85},
      {"binder": "B5", "EC50": 5.49},
      {"binder": "B6", "EC50": 3.63}
    ]},
    {"biological_target": "T4, cynomologus OSMR expressed on cells (cynomologus monkey (Macaca fascicularis), UniProt Q99650 28-978 (human entry))", "T4 chain": "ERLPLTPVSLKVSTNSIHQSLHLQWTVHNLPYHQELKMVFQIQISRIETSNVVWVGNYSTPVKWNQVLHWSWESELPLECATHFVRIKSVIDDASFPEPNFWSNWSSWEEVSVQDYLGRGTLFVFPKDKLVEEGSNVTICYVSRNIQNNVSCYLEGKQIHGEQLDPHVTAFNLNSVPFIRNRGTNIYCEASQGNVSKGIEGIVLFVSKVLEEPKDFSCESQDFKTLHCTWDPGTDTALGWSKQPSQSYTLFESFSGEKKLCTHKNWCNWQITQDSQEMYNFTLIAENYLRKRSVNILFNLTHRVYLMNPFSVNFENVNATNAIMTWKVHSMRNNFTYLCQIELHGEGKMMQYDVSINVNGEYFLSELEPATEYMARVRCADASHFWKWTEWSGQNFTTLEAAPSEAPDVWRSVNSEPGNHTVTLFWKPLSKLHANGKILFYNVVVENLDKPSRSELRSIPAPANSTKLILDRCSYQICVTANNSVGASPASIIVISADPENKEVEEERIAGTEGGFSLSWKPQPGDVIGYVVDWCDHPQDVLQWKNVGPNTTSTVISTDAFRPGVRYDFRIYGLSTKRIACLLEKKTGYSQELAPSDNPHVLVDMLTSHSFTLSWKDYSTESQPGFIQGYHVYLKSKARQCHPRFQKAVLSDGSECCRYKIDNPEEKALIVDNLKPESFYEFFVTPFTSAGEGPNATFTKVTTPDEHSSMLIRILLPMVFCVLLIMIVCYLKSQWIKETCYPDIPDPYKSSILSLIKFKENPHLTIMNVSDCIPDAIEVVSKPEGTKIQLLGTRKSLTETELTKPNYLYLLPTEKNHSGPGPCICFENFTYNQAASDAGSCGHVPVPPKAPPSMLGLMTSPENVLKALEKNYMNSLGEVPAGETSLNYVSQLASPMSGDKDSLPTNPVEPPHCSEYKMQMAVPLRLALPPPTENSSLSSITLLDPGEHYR", "assay": "cell-based or functional assay", "units": {"IC50, cyno IL-31-induced proliferation of BaF3 cells overexpressing cyno IL-31RA and OSMR": "nM", "IC50, cyno OSM-induced STAT3 nuclear translocation in a primary kidney epithelial cell line": "nM"}, "values": [
      {"binder": "B7", "IC50, cyno IL-31-induced proliferation of BaF3 cells overexpressing cyno IL-31RA and OSMR": 6.87, "IC50, cyno OSM-induced STAT3 nuclear translocation in a primary kidney epithelial cell line": 1.24},
      {"binder": "B1", "IC50, cyno IL-31-induced proliferation of BaF3 cells overexpressing cyno IL-31RA and OSMR": 0.225, "IC50, cyno OSM-induced STAT3 nuclear translocation in a primary kidney epithelial cell line": 1.26},
      {"binder": "B6", "IC50, cyno IL-31-induced proliferation of BaF3 cells overexpressing cyno IL-31RA and OSMR": 0.0293, "IC50, cyno OSM-induced STAT3 nuclear translocation in a primary kidney epithelial cell line": 0.518}
    ]},
    {"biological_target": "T5, hOSMR.FH (human, UniProt Q99650 28-740)", "T5 construct": "also called huOSMR", "T5 sequence": "T1 sequence (looked up)", "assay": "SPR, Biacore 3000, antibody captured by anti-human IgG, hOSMR.FH analyte, 25 C", "units": {"Kd": "nM", "koff": "s⁻¹", "kon": "M⁻¹ s⁻¹"}, "experimental": "Biosensor analysis was conducted at 25 C in a HBS-EP+(1×) buffer system (10 mM HEPES pH 7.4, 150 mM NaCl, 3.0 mM EDTA, 0.05% Surfactant P20) using a Biacore 3000 optical biosensor equipped with a CM5 sensor chip. All reagents were kept at 8° C. prior to injection. […] Antibodies 1-3 were diluted (0.25 to 0.5 μg/mL) in running buffer. The antibodies were injected (15 μL) over Flow Cell 2 at a flow rate of 10 μL/min. About 50 RU of antibody was captured. […] Samples were run in duplicate and in random order.\nBuffer analyte blanks (0 nM hOSMR) were injected before, in-between, and after sample injections. Antibodies were injected (15 μL) over Flow Cell 2 at a flow rate of 10 μL/min. About 50 RU of antibody was captured. […] The samples were run in triplicate.\nData was analyzed with Scrubber 2.0 software as follows. Data from Flow Cell 2 was subtracted from the data from Flow Cell I (blank reference). The reference subtracted data (2-1) was then subtracted (double referenced) from the nearest 0 nM concentration data. The double referenced long dissociation data was fit to a 1:1 binding model to determine the dissociation rate constant (kd). This dissociation rate constant was used as a fixed parameter to fit the double referenced short dissociation data to a 1:1 binding model in order to determine the association rate constant (ka) and the equilibrium dissociation constant (Kd).", "values": [
      {"binder": "B7", "Kd": 1.08, "koff": 0.000102, "kon": 94700},
      {"binder": "B1", "Kd": 0.221, "koff": "9.95e-05", "kon": 447000},
      {"binder": "B6", "Kd": 0.0327, "koff": "1.81e-05", "kon": 550000}
    ]}
  ]
}
